The source of these data is publication doi:10.1101/2020.12.31.424863 (bioRxiv, 2020).

Sequences and labels used below:
T1: Smc6 (subunit of the budding yeast Smc5/6 holo-complex) (budding yeast, UniProt Q12749 1-1114)
T1 sequence: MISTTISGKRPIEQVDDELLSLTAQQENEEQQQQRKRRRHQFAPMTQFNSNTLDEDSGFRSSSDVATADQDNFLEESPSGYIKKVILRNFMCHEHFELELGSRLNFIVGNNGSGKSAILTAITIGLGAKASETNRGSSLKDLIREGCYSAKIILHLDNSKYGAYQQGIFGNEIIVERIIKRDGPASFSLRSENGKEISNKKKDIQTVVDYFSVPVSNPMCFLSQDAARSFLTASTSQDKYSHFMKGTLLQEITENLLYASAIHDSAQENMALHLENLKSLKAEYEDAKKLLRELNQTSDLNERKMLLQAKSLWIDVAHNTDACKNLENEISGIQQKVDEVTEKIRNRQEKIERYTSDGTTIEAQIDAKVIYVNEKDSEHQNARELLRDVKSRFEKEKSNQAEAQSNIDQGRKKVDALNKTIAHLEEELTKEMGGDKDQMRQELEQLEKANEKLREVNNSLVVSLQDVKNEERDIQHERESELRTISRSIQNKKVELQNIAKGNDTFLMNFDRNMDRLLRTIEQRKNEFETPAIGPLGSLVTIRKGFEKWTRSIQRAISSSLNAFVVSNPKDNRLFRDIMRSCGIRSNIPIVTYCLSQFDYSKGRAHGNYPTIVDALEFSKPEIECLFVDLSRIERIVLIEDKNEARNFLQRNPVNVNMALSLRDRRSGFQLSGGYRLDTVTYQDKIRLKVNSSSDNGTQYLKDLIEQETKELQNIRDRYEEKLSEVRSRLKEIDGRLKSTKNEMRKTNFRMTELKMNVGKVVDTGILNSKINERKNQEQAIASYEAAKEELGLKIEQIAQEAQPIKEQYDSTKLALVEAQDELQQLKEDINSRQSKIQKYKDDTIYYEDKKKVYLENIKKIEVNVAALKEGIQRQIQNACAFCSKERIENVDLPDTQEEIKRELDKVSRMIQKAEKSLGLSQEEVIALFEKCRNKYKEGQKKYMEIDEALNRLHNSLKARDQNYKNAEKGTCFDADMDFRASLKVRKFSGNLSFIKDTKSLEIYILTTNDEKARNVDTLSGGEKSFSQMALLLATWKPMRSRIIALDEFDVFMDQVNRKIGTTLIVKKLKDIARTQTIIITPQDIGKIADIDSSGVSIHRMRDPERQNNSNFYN

B1: Nse6 (subunit of the budding yeast Smc5/6 holo-complex) (natural protein)
chain: MGSVNSSPNEEFETVPDSQISGFDSPLIPTSVGSYFRDDDDDEKVHPNFISDPENDSLNSDEEFSSLENSDLNLSGAKAESGDDFDPILKRTIISKRKAPSNNEDEEIVKTPRKLVNYVPLKIFNLGDSFDDTITTTVAKLQDLKKEILDSPRSNKSIVITSNTVAKSELQKSIKFSGSIPEIYLDVVTKETISDKYKDWHFISKNCHYEQLMDLEMKDTAYSFLFGSSRSQGKVPEFVHLKCPSITNLLVLFGVNQEKCNSLKINYEKKENSRYDNLCTIFPVNKMLKFLMYFYSDDDNDDVREFFLKAFICLILDRKVFNAMESDHRLCFKVLELFNEAHFINSYFEIVDKNDFFLHYRLLQIFPHLQSALLRRRFSEKQGRTETIQQNIIKEFNEFFDCKNYKNLLYFILTMYGSKFIPFGPKCQVTEYFKDCILDISNETTNDVEISILKGILNLFSKIR
B2: Nse5 (subunit of the budding yeast Smc5/6 holo-complex) (natural protein)
chain: MDGALINSVLYVSPRNGAHYFVELTEKHLLAFEMLNSMCLLENYDHVLLFLECQFGKSHNLAVIPFDIILVLFTLSTLSEYYKEPILRANDPYNTSRETLSRRALKLLQKYLAILKEFDSEQYNLYDLELLRCQFFLAIDTLTPKKQKWGFDRFRRTKSESGVTYRQNASVDPELDQAKTFKNPYRSYISCLEQRNTILGNRLLNLKLNEPGEFINMILWTLSNSLQESTPLFLSSHEIWMPLLEILIDLFSCRQDYFIQHEVAQNVSKSLFVQRLSESPLAVFFESLNTRNFANRFSEYVFLNCDYKLPSDNYATPVHPVYNGENTIVDTYIPTIKCSPLYKSQKSLALRRKLIGSCFKLLLRVPDGHRLITPRIVADDVIQGISRTLASFNDILQFKKFFMTENLSQESYFIPLLAEGTLSEILKDTQECVVILTLVENLSDGVSFCNEVIGLVKSKCFAFTEQCSQASYEEAVLNIEKCDVCLLVLLRYLLHLIGTEAILDAKEQLEMLHAIEKNDSGRRQWAKALNLGNDPPLLYPIVSQMFGVHDKSVIIE
B3: Smc5 (subunit of the budding yeast Smc5/6 holo-complex) (natural protein)
chain: MTSLIDLGRYVERTHHGEDTEPRSKRVKIAKPDLSSFQPGSIIKIRLQDFVTYTLTEFNLSPSLNMIIGPNGSGKSTFVCAVCLGLAGKPEYIGRSKKVEDFIKNGQDVSKIEITLKNSPNVTDIEYIDARDETIKITRIITRSKRRSDYLINDYQVSESVVKTLVAQLNIQLDNLCQFLSQERVEEFARLKSVKLLVETIRSIDASLLDVLDELRELQGNEQSLQKDLDFKKAKIVHLRQESDKLRKSVESLRDFQNKKGEIELHSQLLPYVKVKDHKEKLNIYKEEYERAKANLRAILKDKKPFANTKKTLENQVEELTEKCSLKTDEFLKAKEKINEIFEKLNTIRDEVIKKKNQNEYYRGRTKKLQATIISTKEDFLRSQEILAQTHLPEKSVFEDIDIKRKEIINKEGEIRDLISEIDAKANAINHEMRSIQRQAESKTKSLTTTDKIGILNQDQDLKEVRDAVLMVREHPEMKDKILEPPIMTVSAINAQFAAYLAQCVDYNTSKALTVVDSDSYKLFANPILDKFKVNLRELSSADTTPPVPAETVRDLGFEGYLSDFITGDKRVMKMLCQTSKIHTIPVSRRELTPAQIKKLITPRPNGKILFKRIIHGNRLVDIKQSAYGSKQVFPTDVSIKQTNFYQGSIMSNEQKIRIENEIINLKNEYNDRKSTLDALSNQKSGYRHELSELASKNDDINREAHQLNEIRKKYTMRKSTIETLREKLDQLKREARKDVSQKIKDIDDQIQQLLLKQRHLLSKMASSMKSLKNCQKELISTQILQFEAQNMDVSMNDVIGFFNEREADLKSQYEDKKKFVKEMRDTPEFQSWMREIRSYDQDTKEKLNKVAEKYEEEGNFNLSFVQDVLDKLESEIAMVNHDESAVTILDQVTAELRELEHTVPQQSKDLETIKAKLKEDHAVLEPKLDDIVSKISARFARLFNNVGSAGAVRLEKPKDYAEWKIEIMVKFRDNAPLKKLDSHTQSGGERAVSTVLYMIALQEFTSAPFRVVDEINQGMDSRNERIVHKAMVENACAENTSQYFLITPKLLTGLHYHEKMRIHCVMAGSWIPNPSEDPKMIHFGETSNYSFD
B4: Nse2 SUMO ligase (subunit of the budding yeast Smc5/6 holo-complex) (natural protein)
chain: MALNDNPIPKSVPLHPKSGKYFHNLHARDLSNIYQQCYKQIDETINQLVDSTSPSTIGIEEQVADITSTYKLLSTYESESNSFDEHIKDLKKNFKQSSDACPQIDLSTWDKYRTGELTAPKLSELYLNMPTPEPATMVNNTDTLKILKVLPYIWNDPTCVIPDLQNPADEDDLQIEGGKIELTCPITCKPYEAPLISRKCNHVFDRDGIQNYLQGYTTRDCPQAACSQVVSMRDFVRDPIMELRCKIAKMKESQEQDKRSSQAIDVL

The target of assay [1] is B3. Briefly: cross-linking.
In assay [2] the target is B2. Kind of assay: cross-linking.
Assay [3] has as its target T1, Smc6 (subunit of the budding yeast …). Briefly: cross-linking.
Assay [4] shares this target. Kind of assay: negative stain EM.
For assay [5], the target named is B1. Briefly: cross-linking.

On to B1, for which the binding result in assay [1], in assay [2] and in assay [3] was “binds” throughout.

As to B2, the binding result in assay [1] and in assay [3] was “binds” in each case.

On to B3, for which the binding result in assay [4] is on record as “binds”.

On to B4, for which the binding result in assay [1], in assay [5] and in assay [3] was “binds” in each case.
